Measurements reported in the supplement of paper PMC7877785.
± gives the uncertainty stated by the source.

Assay: self-splicing fitness, log relative to wild type (ln ratio); higher = more splicing; Tetrahymena group I intron in knt gene, E. coli kanamycin selection, DiMSum; sequences stand for … in CUCUCU…GGAGGGAAAAGUUAUCAGGCAUGCACCUGGUAGCUAGUCUUUAAACCAAUAGAUUGCAUCGGUUUAAAAGGCAAGACCGUCAAAUUGCGGGAAAGGGGUCAACAGCCGUUCAGUACCAAGUCUCAGGGGAAACUUUGAGAUGGCCUUGCAAAGGGUAUGGUAAUAAGCUGACGGACAUGGUCCUAACCACGCAGCCAAGUCCUAAGUCAACAGAUCUUCUGUUGAUAUGGAUGCAGUUCACAGACUAAAUGUCGGUCGGGGAAGAUGUAUUCUUCUCAUAAGAUAUAGUCGGACCUCUCCUUAAUGGGAGCUAGCGGAUGAAGUGAUGCAACACUGGAGCCGCUGGGAACUAAUUUGUAUGCGAAAGUAUAUUGAUUAGUUUUGGAGUACUCGUGGUCG
Outline: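 DiMSum derived fitness as the error-weighted combination of fold changes across replicates, kanamycin versus no kanamycin, normalised to wild type. E. coli BL21(DE3) held the library, which randomised all eight P1ex-region intron nucleotides within the knt kanamycin-resistance gene on pET-22b(+). Six replicate transformations grew overnight at 37°C or 30°C on LB agar with or without 25 μg/mL kanamycin, also containing 100 μg/mL carbenicillin, 50 μM IPTG and 0.2% rhamnose, and pooled colonies were amplicon-sequenced on an Illumina HiSeq 2500.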

Sequence	self-splicing fitness (ln) (30 °C)	self-splicing fitness (ln) (37 °C)
AGGGAGCAAUAUUACGUCUC	-1.79 ± 0.32	-2.54 ± 0.48
GAAUAGCAAUAUUACGAGCC	-1.48 ± 0.17	0.00455 ± 0.17
GGGUAGCAAUAUUACGUCGA	-0.508 ± 0.14	-0.243 ± 0.15
ACCGAGCAAUAUUACGUGUU	-3.76 ± 0.19	-2.65 ± 0.24
AAAAAGCAAUAUUACGGCUG	-0.648 ± 0.085	-0.345 ± 0.13
CGUGAGCAAUAUUACGACGA	-1.92 ± 0.12	-0.885 ± 0.12
UAGAAGCAAUAUUACGGUUU	-3.09 ± 0.17	-2.28 ± 0.16
CAUCAGCAAUAUUACGGUUA	-0.767 ± 0.1	-0.102 ± 0.1
GCACAGCAAUAUUACGAUUU	-0.869 ± 0.042	-0.0519 ± 0.058
GCAGAGCAAUAUUACGAAGU	-2.88 ± 0.12	-1.03 ± 0.13
CUUCAGCAAUAUUACGAUUC	-2.88 ± 0.21	-1.85 ± 0.16
UCAUAGCAAUAUUACGUCGA	-0.314 ± 0.093	-0.745 ± 0.13
CUGUAGCAAUAUUACGGACC	-2.03 ± 0.47	
CGGAAGCAAUAUUACGGGUG	-0.485 ± 0.09	0.544 ± 0.086
UAAAAGCAAUAUUACGAUGA	-0.245 ± 0.085	0.0881 ± 0.087
GCAUAGCAAUAUUACGCAUU	-2.81 ± 0.26	-0.0868 ± 0.17
CUCGAGCAAUAUUACGGUCA	-2.89 ± 0.28	-0.817 ± 0.23
AACGAGCAAUAUUACGGACG	-2.19 ± 0.2	-1.05 ± 0.23
CCACAGCAAUAUUACGAACU	-2.98 ± 0.17	-3.23 ± 0.32
UGGCAGCAAUAUUACGUCAU	-4.47 ± 0.33	-2.67 ± 0.26

Sequence	self-splicing fitness (ln) (30 °C)	self-splicing fitness (ln) (37 °C)
GGGUAGCAAUAUUACGUCGG	-3.8 ± 0.2	-1.68 ± 0.17
GCAGAGCAAUAUUACGGGCC		-0.867 ± 0.3
UUUAAGCAAUAUUACGUAGU	-2.62 ± 0.13	-2.13 ± 0.18
UAAAAGCAAUAUUACGGCCU	-0.961 ± 0.1	-0.4 ± 0.12
CGCGAGCAAUAUUACGAGAA		-2.08 ± 0.34
CCCGAGCAAUAUUACGGUUA	-2.05 ± 0.1	-1.36 ± 0.1
GUGGAGCAAUAUUACGAUUA	-2.1 ± 0.48	-1.68 ± 0.34
GACUAGCAAUAUUACGCGGA	-1.55 ± 0.13	-0.984 ± 0.11
GCAGAGCAAUAUUACGUAGG	-2.17 ± 0.11	-1.7 ± 0.14
CGAUAGCAAUAUUACGUCUG	0.295 ± 0.061	0.0438 ± 0.072
CCUUAGCAAUAUUACGCAAC		-2.04 ± 0.48
UACAAGCAAUAUUACGAGAA	-2.1 ± 0.29	-2.42 ± 0.33
AUAUAGCAAUAUUACGCUUG	-1.42 ± 0.11	-0.589 ± 0.13
GAGUAGCAAUAUUACGGGCC	-2.52 ± 0.15	-1.32 ± 0.13
UAGAAGCAAUAUUACGAGUC	-2.76 ± 0.39	-2.02 ± 0.33
AGACAGCAAUAUUACGUGGA	-3.96 ± 0.24	-2.37 ± 0.2
CCGCAGCAAUAUUACGUAGA	-3.07 ± 0.17	-1.37 ± 0.12
GAAAAGCAAUAUUACGGAAG	-3.88 ± 0.31	-1.32 ± 0.16
GGCCAGCAAUAUUACGGAAG	-1.79 ± 0.082	-0.69 ± 0.11
